Substitutions are numbered along the chain they refer to. In names and notes the source's numbering stands.
B1: L3MBTL2 4MBT domain, human (domain or fragment)
chain: TGQDALVLGFDWGKFLKDHSYKAAPVSCFKHVPLYDQWEDVMKGMKVEVLNSDAVLPSRVYWIASVIQTAGYRVLLRYEGFENDASHDFWCNLGTVDVHPIGWCAINSKILVPPRTIHAKFTDWKGYLMKRLVGSRTLPVDFHIKMVESMKYPFRQGMRLEVVDKSQVSRTRMAVVDTVIGGRLRLLYEDGDSDDDFWCHMWSPLIHPVGWSRRVGHGIKMSERRSDMAHHPTFRKIYCDAVPYLFKKVRAVYTEGGWFEEGMKLEAIDPLNLGNICVATVCKVLLDGYLMICVDGGPSTDGLDWFCYHASSHAIFPATFCQKNDIELTPPKGYEAQTFNWENYLEKTKSKAAPSRLFNMDCPNHGFKVGMKLEAVDLMEPRLICVATVKRVVHRLLSIHFDGWDSEYDQWVDCESPDIYPVGWCELTGYQLQPPVAAEPATPLKAKEATKKKKKQ
B2: Sfmbt 4MBT domain (Sfmbt 531-980), wild type (domain or fragment, Drosophila melanogaster, UniProt Q9VK33 531-980, looked up)
chain: DPTHSYDWLPRLSKENFNAAPVTCFPHAPGCEVWDNLGVGMKVEVENTDCDSIEVIQPGQTPTSFWVATILEIKGYKALMSYEGFDTDSHDFWVNLCNAEVHSVGWCATRGKPLIPPRTIEHKYKDWKDFLVGRLSGARTLPSNFYNKINDSLQSRFRLGLNLECVDKDRISQVRLATVTKIVGKRLFLRYFDSDDGFWCHEDSPIIHPVGWATTVGHNLAAPQDYLERMLAGREAMIEVHEDDATIELFKMNFTFDEYYSDGKTNSFVEGMKLEAVDPLNLSSICPATVMAVLKFGYMMIRIDSYQPDASGSDWFCYHEKSPCIFPAGFCSVNNISVTPPNGYDSRTFTWEGYLRDTGAVAAGQHLFHRIIPDHGFEVGMSLECADLMDPRLVCVATVARVVGRLLKVHFDGWTDEYDQWLDCESADIYPVGWCVLVNHKLEGPPRVAH
B3: Sfmbt 4MBT S633P/S673P (domain or fragment, Drosophila melanogaster, UniProt Q9VK33 531-980, looked up)
chain: B2 chain with S103P, S143P
B4: MBTD1 4MBT domain, human (domain or fragment)
chain: AKTKAAVSMEGFSWGNYINSNSFIAAPVTCFKHAPMGTCWGDISENVRVEVPNTDCSLPTKVFWIAGIVKLAGYNALLRYEGFENDSGLDFWCNICGSDIHPVGWCAASGKPLVPPRTIQHKYTNWKAFLVKRLTGAKTLPPDFSQKVSESMQYPFKPCMRVEVVDKRHLCRTRVAVVESVIGGRLRLVYEESEDRTDDFWCHMHSPLIHHIGWSRSIGHRFKRSDITKKQDGHFDTPPHLFAKVKEVDQSGEWFKEGMKLEAIDPLNLSTICVATIRKVLADGFLMIGIDGSEAADGSDWFCYHATSPSIFPVGFCEINMIELTPPRGYTKLPFKWFDYLRETGSIAAPVKLFNKDVPNHGFRVGMKLEAVDLMEPRLICVATVTRIIHRLLRIHFDGWEEEYDQWVDCESPDLYPVGWCQLTGYQLQPPASQSSR

How the values were obtained:
[1] = molecular target: biotin-YY1 spacer peptide (human, UniProt P25490 199-228, biotin (position not given)); experiment: SPR
Sequence of biotin-YY1 spacer peptide (P25490 199-228): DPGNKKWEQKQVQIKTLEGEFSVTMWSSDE

[2] = molecular target: full-length Pho protein (EMSA) (Drosophila melanogaster, UniProt Q8ST83 1-520); experiment: native gel or EMSA
Sequence of full-length Pho protein (EMSA) (Q8ST83 whole entry): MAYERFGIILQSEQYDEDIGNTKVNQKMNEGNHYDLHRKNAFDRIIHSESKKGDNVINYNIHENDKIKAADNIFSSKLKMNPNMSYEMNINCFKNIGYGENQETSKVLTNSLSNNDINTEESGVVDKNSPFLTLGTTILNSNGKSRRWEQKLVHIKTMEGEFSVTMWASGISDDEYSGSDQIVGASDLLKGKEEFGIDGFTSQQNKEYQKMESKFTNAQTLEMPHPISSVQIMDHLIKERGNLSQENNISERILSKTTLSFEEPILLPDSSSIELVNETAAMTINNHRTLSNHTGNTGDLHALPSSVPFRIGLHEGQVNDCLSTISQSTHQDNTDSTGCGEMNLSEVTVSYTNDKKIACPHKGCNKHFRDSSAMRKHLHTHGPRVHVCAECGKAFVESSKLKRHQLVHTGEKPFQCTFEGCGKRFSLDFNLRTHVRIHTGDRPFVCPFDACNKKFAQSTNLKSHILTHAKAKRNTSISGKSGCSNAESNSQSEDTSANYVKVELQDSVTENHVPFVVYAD

[3] = molecular target: biotin-Pho spacer peptide (Drosophila melanogaster, UniProt Q8ST83 145-172, biotin (position not given)); experiment: SPR
Sequence of biotin-Pho spacer peptide (Q8ST83 145-172): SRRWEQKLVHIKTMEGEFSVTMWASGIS

Row | Binder | fold weaker affinity than the Drosophila complex [1] | also measured
1 | B1 | ~50 fold | 
2 | B2 |  | binding result [2]: binds
3 | B3 |  | fold decrease in binding affinity against the wild type [3]: 2 fold
4 | B4 | ~50 fold | 

From article PMC3828522 (Genes & Development, 2013)
